Measured values reported in patent publication US20250388704A1 (Xencor, published 2025).

Assays:
[1] = biological target: T1, human PSMA on the surface of prostate cancer cell lines (C42B / C42B-NLR, 22Rv1 / 22Rv1-NLR, PSMA-transfected … (human, UniProt Q04609 1-750)); experiment: flow cytometry on 22Rv1-NLR (PSMA med) cells, 30 min at 37 degrees, detection with anti-human-Ig-FITC
T1 construct: whole, on cells; also called Prostate Specific Membrane Antigen

[2] = biological target: T2, CD28 antigen used for the affinity determinations (human, UniProt P10747 19-152, limits assumed); experiment: CD28 binding affinity of the scFv arm, told in a figure legend; method not stated
T2 construct: Octet/BLI is described only for the bivalent mAbs

[3] = biological target: T1, human PSMA on the surface of prostate …; experiment: binding to C4-2B (C42B, PSMA^hi) cells, MFI against concentration, least squares fit
[4] = biological target: T2, CD28 antigen used for the affinity …; experiment: CD28 binding affinity of the scFv arm; method not stated
[5] = biological target: T2, CD28 antigen used for the affinity …; experiment: CD28 binding affinity of the scFv arm; method not stated; assigned to XENP40470 by elimination
[6] = biological target: T3, human CD28 on the surface of human PBMCs / T cells (human, UniProt P10747 19-220); experiment: flow cytometry on human PBMCs, 1 h at 4 C, detected with Alexa Fluor 647 anti-human IgG Fc secondary
T3 construct: whole, on cells; Endogenous CD28 on human PBMCs (flow cytometry) and on T cells (functional assays); also called cell-surface CD28
Source text: Binding of the phage-derived bivalent mAbs to cell-surface CD28 was investigated.

B1: PSMA x CD28 bsAb with A10 PSMA binding domain and 1A7_H1_L1.71 CD28 binding domain (Platform X) (bispecific antibody)
heavy: not shown
scFv-Fc: not shown
light: SYELMQPPSVSVSPGQTARITCSGDALPKQYAYWYQQKPGQAPVLVIYKDSERPSGIPVRFSGSSSGTTVTLTITGVQAEDEADYYCQSADSSGTYVFGTGTKVTVLGQPKAAPSVTLFPPSSEELQANKATLVCLISDFYPGAVTVAWKADSSPVKAGVETTTPSKQSNNKYAASSYLSLTPEQWKSHRSYSCQVTHEGSTVEKTVAPTECS
How did the “EC50 (read off the curve)” value [1] turn out when B1 was run?
Its value is about 0.06 µg/mL.

B2: XENP38936 (bispecific antibody)
heavy: not shown
scFv-Fc: not shown
light: B1 light
notes: also called PSMA x CD28 180 nM
B2 was tested. Which Kd [2] did it give?
Its Kd is 180 nM.

What about the “EC50 (read off the curve)” value [3] of the same binder?
Its value is about 2 nM.

B3: XENP39231 (bispecific antibody)
heavy: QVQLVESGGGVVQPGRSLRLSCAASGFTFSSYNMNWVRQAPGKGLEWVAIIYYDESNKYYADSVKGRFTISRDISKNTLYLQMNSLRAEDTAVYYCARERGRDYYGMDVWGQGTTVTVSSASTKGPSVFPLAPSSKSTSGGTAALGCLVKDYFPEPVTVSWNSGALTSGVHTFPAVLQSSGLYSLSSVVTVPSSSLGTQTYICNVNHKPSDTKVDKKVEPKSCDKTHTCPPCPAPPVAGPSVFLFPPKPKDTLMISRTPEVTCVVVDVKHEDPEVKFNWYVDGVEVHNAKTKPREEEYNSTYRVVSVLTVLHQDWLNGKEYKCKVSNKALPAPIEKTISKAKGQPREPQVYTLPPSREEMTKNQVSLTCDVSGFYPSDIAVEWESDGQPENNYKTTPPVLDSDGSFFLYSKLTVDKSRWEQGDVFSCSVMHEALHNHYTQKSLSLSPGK
scFv-Fc: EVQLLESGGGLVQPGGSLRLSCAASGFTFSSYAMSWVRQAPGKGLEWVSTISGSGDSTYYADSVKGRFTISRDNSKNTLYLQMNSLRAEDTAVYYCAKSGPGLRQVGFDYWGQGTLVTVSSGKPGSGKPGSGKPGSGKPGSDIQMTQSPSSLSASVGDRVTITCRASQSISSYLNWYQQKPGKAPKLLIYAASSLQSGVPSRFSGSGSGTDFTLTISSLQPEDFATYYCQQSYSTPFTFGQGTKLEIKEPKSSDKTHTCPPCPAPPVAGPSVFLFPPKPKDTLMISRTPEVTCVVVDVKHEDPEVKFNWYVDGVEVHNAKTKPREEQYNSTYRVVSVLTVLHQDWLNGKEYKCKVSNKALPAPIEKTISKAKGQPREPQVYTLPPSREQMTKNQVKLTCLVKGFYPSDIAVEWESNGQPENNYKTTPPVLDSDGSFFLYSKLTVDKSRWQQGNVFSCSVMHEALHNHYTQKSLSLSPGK
light: B1 light
notes: also called PSMA x CD28 1 uM
B3 was tested. Which Kd [4] did it give?
The Kd was 1000 nM.

B4: XENP40470 (bispecific antibody)
heavy: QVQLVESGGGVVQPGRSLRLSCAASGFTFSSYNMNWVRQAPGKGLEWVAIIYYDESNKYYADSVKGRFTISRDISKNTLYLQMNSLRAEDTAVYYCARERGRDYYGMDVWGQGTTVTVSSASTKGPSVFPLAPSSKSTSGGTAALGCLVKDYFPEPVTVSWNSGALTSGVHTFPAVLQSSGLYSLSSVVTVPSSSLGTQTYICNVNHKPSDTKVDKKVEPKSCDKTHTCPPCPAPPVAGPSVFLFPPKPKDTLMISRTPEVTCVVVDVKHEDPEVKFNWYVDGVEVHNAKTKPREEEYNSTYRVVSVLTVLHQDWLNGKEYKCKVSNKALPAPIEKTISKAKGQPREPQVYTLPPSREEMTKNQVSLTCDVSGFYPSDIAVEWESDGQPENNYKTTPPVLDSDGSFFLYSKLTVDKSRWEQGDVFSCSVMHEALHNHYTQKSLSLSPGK
scFv-Fc: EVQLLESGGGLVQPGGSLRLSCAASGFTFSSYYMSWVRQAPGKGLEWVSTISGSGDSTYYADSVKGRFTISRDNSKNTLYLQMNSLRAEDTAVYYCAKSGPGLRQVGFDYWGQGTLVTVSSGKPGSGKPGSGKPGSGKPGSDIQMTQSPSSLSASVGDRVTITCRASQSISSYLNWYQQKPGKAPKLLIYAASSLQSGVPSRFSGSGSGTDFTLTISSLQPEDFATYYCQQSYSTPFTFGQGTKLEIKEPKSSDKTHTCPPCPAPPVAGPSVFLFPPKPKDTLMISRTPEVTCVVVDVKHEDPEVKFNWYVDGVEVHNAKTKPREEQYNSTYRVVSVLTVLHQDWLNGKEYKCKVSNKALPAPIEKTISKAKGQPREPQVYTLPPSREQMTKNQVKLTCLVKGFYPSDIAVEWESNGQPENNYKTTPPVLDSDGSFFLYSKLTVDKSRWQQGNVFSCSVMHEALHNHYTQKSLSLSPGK
light: B1 light
notes: Assigned to the 600 nM domain by elimination, because XENP39231 is told to be 1000 nM
For B4, which Kd [5] is on record?
The Kd was 600 nM.

B5: XENP27181 (antibody, V domains shown)
VH: QVQLQESGPGLVKPSETLSLTCAVSGFSLTSYGVHWIRQPPGKGLEWLGVIWPGGGTNFNSALMSRLTISEDTSKNQVSLKLSSVTAADTAVYYCARDRAYGNYLYAMDYWGQGTLVTVSS
VL: DIQMTQSPSSLSASVGDRVTITCRASESVEYYVTSLMQWYQQKPGKAPKLLIYAASNVDSGVPSRFSGSGSGTDFTLTISSLQPEDIATYYCQQSRKVPFTFGGGTKVEIKR
notes: Bivalent anti-CD28 mAb; also called HuTN228; prior art anti-CD28 mAb HuTN228; copies: 2 + 2
Does B5 bind [6]?
Result: binds
